Measurements: patent US8309523 (VIB VZW, dated 2012)
Where a chain is given by its changes, count along the chain named. Names may count otherwise. Read-outs that look alike come from different tables or passages of the source.

T1: Ac-LSSR-AMC
T1 sequence: LSSR

T2: Z-GASR-CHO
T2 sequence: GASR

T3: Z-LSSR-CHO
T3 sequence: LSSR

T4: [35S]methionine-labeled human A20 (in vitro translated) (UniProt P21580)
T4 sequence: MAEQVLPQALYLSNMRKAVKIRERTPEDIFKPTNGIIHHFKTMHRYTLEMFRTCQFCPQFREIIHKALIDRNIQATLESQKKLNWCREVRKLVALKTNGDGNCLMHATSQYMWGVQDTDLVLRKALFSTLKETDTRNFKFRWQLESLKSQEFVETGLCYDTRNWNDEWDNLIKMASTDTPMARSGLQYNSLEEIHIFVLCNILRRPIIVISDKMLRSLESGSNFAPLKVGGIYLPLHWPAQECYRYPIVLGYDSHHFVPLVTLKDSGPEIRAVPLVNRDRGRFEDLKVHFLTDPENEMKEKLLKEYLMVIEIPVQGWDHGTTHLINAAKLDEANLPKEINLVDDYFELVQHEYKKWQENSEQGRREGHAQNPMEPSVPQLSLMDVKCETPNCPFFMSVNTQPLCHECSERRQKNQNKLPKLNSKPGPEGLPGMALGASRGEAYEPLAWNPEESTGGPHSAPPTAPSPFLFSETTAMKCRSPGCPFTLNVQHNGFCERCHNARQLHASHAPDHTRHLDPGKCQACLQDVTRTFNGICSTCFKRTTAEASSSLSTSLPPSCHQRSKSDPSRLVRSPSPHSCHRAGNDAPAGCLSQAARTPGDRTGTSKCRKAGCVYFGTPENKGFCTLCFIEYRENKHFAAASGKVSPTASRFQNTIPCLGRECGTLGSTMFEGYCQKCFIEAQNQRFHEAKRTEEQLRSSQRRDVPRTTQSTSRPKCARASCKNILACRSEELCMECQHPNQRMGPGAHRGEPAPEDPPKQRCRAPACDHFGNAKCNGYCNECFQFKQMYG

T5: Ac-LSSR-AMC
T5 chain: LSSR

T6: Z-LSSR-CHO
T6 chain: LSSR

T7: Arabidopsis thaliana serpin (AT1g47710), Q9S7T8
T7 chain: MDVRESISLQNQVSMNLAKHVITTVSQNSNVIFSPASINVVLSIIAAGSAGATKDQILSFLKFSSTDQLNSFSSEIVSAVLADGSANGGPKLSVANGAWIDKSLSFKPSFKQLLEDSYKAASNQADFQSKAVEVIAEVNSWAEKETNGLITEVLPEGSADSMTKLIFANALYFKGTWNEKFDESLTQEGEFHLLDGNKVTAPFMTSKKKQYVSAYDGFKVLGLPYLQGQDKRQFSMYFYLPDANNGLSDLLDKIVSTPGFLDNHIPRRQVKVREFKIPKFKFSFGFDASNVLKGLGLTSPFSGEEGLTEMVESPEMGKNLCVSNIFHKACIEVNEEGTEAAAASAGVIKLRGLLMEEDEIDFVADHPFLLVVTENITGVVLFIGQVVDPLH

T8: Arabidopsis thaliana serpin, IKLA-mutant, Q9S7T8
T8 chain: T7 chain with R351A

B1: MALT1C-gyraseB-C464A (enzyme, part only; not given: gyrase B fragment)
chain, part: TTDQPLAKDKVALLIGNMNYREHPKLKAPLVDVYELTNLLRQLDFKVVSLLDLTEYEMRNAVDEFLLLLDKGVYGLLYYAGHGYENFGNSFMVPVDAPNPYRSENCLCVQNILKLMQEKETGLNVFLLDMARKRNDYDDTIPILDALKVTANIVFGYATCQGAEAFEIQHSGLANGIFMKFLKDRLLEDKKITVLLDEVAEDMGKCHLTKGKQALEIRSSLSEKRALTDPIQGTEYSAESLVRNLQWAKAHELPESMCLKFDCGVQIQLGFAAEFSNVMIIYTSIVYKPPEIIMCDAYVTDFPLDLDIDPKDANKGTPEETGSYLVSKDLPKHCLYTRLSSLQKLKEHLVFTVCLSYQYSGLEDTVEDKQEVNVGKPLIAKLDMHRGLGRKTCFQTCLMSNGPYQSSAATSGGAGHYHSLQDPFHGVYHSHPGNPSNVTPADSCHCSRTPDAFISSFAHHASCHFSRSNVPVETTDEIPFSFSDRLRISEK
B2: MALT1 (wild type, Flag- and Avi-tagged bio-construct) (protein)
chain: MSLLGDPLQALPPSAAPTGPLLAPPAGATLNRLREPLLRRLSELLDQAPEGRGWRRLAELAGSRGRLRLSCLDLEQCSLKVLEPEGSPSLCLLKLMGEKGCTVTELSDFLQAMEHTEVLQLLSPPGIKITVNPESKAVLAGQFVKLCCRATGHPFVQYQWFKMNKEIPNGNTSELIFNAVHVKDAGFYVCRVNNNFTFEFSQWSQLDVCDIPESFQRSVDGVSESKLQICVEPTSQKLMPGSTLVLQCVAVGSPIPHYQWFKNELPLTHETKKLYMVPYVDLEHQGTYWCHVYNDRDSQDSKKVEIIIGRTDEAVECTEDELNNLGHPDNKEQTTDQPLAKDKVALLIGNMNYREHPKLKAPLVDVYELTNLLRQLDFKVVSLLDLTEYEMRNAVDEFLLLLDKGVYGLLYYAGHGYENFGNSFMVPVDAPNPYRSENCLCVQNILKLMQEKETGLNVFLLDMCRKRNDYDDTIPILDALKVTANIVFGYATCQGAEAFEIQHSGLANGIFMKFLKDRLLEDKKITVLLDEVAEDMGKCHLTKGKQALEIRSSLSEKRALTDPIQGTEYSAESLVRNLQWAKAHELPESMCLKFDCGVQIQLGFAAEFSNVMIIYTSIVYKPPEIIMCDAYVTDFPLDLDIDPKDANKGTPEETGSYLVSKDLPKHCLYTRLSSLQKLKEHLVFTVCLSYQYSGLEDTVEDKQEVNVGKPLIAKLDMHRGLGRKTCFQTCLMSNGPYQSSAATSGGAGHYHSLQDPFHGVYHSHPGNPSNVTPADSCHCSRTPDAFISSFAHHASCHFSRSNVPVETTDEIPFSFSDRLRISEK
B3: MALT1 as used in the paracaspase assay of Example 10 (protein)
chain: B2 chain
B4: MALT1-C464A (bio-tagged) (protein)
chain: B2 chain with C464A
B5: MALT1-R149A (bio-tagged) (protein)
chain: B2 chain with R149A

Tests used:
[1] = tested on: T1, Ac-LSSR-AMC
[2] = tested on: T2, Z-GASR-CHO
[3] = tested on: T3, Z-LSSR-CHO
[4] = biological target: T4, [35S]methionine-labeled human A20 (in vitro translated)
[5] = biological target: T5, Ac-LSSR-AMC
[6] = biological target: T6, Z-LSSR-CHO
[7] = biological target: T7, Arabidopsis thaliana serpin …
[8] = biological target: T8, Arabidopsis thaliana serpin, …

Molecule | cleavage of Ac-LSSR-AMC in vitro (fluorescence release) [1] | in vitro cleavage of radiolabeled A20 (SDS-PAGE, autoradiography; 500, 1000 or 1500 nM enzyme) [4] | cleavage of Ac-LSSR-AMC in vitro (fluorescence release) [5] | other results
MALT1C-gyraseB | the recombinant MALT1 p20 fragment (Sun et al., 2004) efficiently cleaved the Ac-LSSR-AMC (see SEQ ID NO:1) substrate | In vitro incubation of radiolabeled A20 with recombinant MALT1C-gyraseB resulted in the generation of an A20 fragment of approximately 50 kDa |  | Ac-LSSR-AMC cleavage by recombinant MALT1 [2]: adding Z-LSSR-CHO (see SEQ ID NO:1) or Z-GASR-CHO (see SEQ ID NO:2) completely blocked the proteolytic activity of recombinant MALT1; Ac-LSSR-AMC cleavage by recombinant MALT1 [3]: adding Z-LSSR-CHO (see SEQ ID NO:1) or Z-GASR-CHO (see SEQ ID NO:2) completely blocked the proteolytic activity of recombinant MALT1
B1 | the recombinant C464A mutant failed to do so, although its higher concentration | incubation of A20 with the catalytically inactive MALT1C-gyraseB-C464A mutant protein did not result in A20 cleavage |  | 
B2 |  |  | bio-IP purified MALT1 was indeed able to cleave Ac-LSSR-AMC (see SEQ ID NO:1) in vitro | Ac-LSSR-AMC cleavage by bio-IP purified MALT1 (fluorescence release) [6]: Substrate cleavage by MALT1 was efficiently blocked by a Z-LSSR-CHO (see SEQ ID NO:1) and a Z-GASR-CHO (see SEQ ID NO:2) inhibitor at equimolar concentrations
B3 |  |  |  | paracaspase assay (MALT1 proteolytic activity) [7]: Inhibition of the MALT1 paracaspase activity is possible, but only at relatively high concentrations of serpin; paracaspase assay (MALT1 proteolytic activity) [8]: the IKLA-mutant (SEQ ID NO:16), which is inactive versus plant metacaspase (Vercammen et al., 2006) is performing better than wild type serpin at higher concentrations
B4 |  |  | whereas bio-1P purified C464 mutant was not | 
B5 |  |  | the R149A mutant was as efficient in substrate processing as MALT1 | 
